# Values quoted from earlier work, collected in patent US20060084109.
# Molecular target: T1, Formamidopyrimidine glycosylase (Fpg, MutM) (Escherichia coli) (UniProt P05523)
# T1 sequence: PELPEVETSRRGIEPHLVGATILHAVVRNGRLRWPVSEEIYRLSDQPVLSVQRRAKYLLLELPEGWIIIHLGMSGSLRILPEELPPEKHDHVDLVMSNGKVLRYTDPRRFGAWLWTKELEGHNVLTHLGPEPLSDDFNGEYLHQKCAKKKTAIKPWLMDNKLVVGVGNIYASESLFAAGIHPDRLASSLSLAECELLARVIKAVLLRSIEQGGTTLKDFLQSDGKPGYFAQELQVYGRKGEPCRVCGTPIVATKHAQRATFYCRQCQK
# Assay: cleavage_in_vitro
# Settings: 8-oxo-dG at position 10, cytidine opposite in complementary strand; CITED Vuyisich and Beal 2002; product from 20 nM substrate, 1 nM Fpg, 7 min, room temperature, no inhibitor
sequence,measurement,value
TCATGGGTCNTCGGTATA (double strand) [Fpg 18-mer 8-oxo-dG substrate duplex],activity,2 nM
